Experimental data reported in US20170355769A1 (AbbVie / Abbott, published 2017).

T1: Human full length B7-H3 (human, UniProt Q5ZPR3 29-534)
T1 construct: On 3T12 fibroblasts expressing full length human B7-H3 or on NCI-H1650 cells; signal peptide residues 1-28 stated; also called huB7-H3; CD276
T1 sequence: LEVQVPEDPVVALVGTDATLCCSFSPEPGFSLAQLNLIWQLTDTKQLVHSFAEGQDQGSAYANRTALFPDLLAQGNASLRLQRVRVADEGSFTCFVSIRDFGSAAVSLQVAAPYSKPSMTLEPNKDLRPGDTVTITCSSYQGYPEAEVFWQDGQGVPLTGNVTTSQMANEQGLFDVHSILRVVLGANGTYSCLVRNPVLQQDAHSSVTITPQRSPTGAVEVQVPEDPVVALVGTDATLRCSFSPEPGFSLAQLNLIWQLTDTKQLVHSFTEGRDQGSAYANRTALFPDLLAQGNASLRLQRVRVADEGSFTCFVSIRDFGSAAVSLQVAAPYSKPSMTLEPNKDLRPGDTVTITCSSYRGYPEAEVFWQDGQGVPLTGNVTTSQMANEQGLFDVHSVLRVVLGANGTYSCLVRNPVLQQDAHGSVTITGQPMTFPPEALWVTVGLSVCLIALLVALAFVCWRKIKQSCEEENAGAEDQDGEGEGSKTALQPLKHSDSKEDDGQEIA

T2: Human B7-H3-ECD (His tag) (human, UniProt Q5ZPR3 29-461)
T2 construct: SPR analyte; also called huB7-H3; soluble ECD of human B7-H3
T2 sequence: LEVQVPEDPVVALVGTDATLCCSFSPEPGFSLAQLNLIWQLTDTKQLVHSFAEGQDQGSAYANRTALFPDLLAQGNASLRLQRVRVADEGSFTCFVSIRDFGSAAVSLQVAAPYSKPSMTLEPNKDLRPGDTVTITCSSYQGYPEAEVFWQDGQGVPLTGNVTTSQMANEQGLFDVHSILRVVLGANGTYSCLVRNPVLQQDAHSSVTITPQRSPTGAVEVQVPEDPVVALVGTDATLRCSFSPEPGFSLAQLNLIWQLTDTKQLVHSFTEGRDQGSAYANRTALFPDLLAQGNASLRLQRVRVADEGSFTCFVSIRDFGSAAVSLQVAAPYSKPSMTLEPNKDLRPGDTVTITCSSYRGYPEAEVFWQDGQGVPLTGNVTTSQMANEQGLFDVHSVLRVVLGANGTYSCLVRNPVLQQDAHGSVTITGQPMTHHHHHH


Key:
Human full length B7-H3 = target: T1, Human full length B7-H3; assay: FACS, NCI-H1650 cells
Description: To generate purified chimeric antibodies, expression vectors were transiently transfected into HEK293 6E suspension cell cultures in a ratio of 60% to 40% light to heavy chain construct. 1 mg/ml of polyethylenimine (PEI) or 2.6 μL/mL of Expifectamine was used to transfect the cells. Cell supernatants were harvested after five days in shaking flasks, spun down to pellet cells, and filtered through 0.22 μm filters to separate IgG from culture contaminants. Antibody-containing supernatants were purified on Akta Pure using protein A mAb SelectSure. Columns were equilibrated in PBS pH 7.4, supernatants were then passed through the column and a wash was performed with PBS pH 7.4. IgG were eluted with 0.1 M acetic acid pH 3.5 and collected in several aliquots. Fractions containing IgG were pooled and dialyzed in PBS overnight at 4° C.
Cells were harvested from flasks when approximately 80% confluent using Gibco® Cell Dissociation Buffer. Cells were washed once in PBS/1% FBS (FACS buffer) then resuspended at 2.5×10⁶ cells/mL in FACS buffer. 100 μL of cells/well were added to a round bottom 96-well plate. 10 μL of a 10× concentration of mAb/ADC (final concentrations are indicated the figures). Wells were washed twice with FACS buffer and resuspended in 50 μL of secondary Ab (AlexaFluor 488) diluted in FACS buffer. The plate was incubated at 4° C. for one hour and washed twice with FACS buffer. Cells were resuspended in 100 μL of PBS/1% formaldehyde and analyzed on a Becton Dickinson LSRII flow cytometer. Data was analyzed using WinList flow cytometry analysis software.

[1] = target: T2, Human B7-H3-ECD (His tag); assay: SPR Biacore, naked mAb
Description: Biacore T200 SPR instruments were used to measure the binding kinetics of human B7-H3 (analyte) binding to various mAbs (ligands). The assay format was Fc-based capture via immobilized anti-mouse (Fc) (Pierce 31170) or immobilized anti-human (Fc) (Pierce 31125). A standard amine coupling protocol was employed to immobilize the capture reagents via primary amines to the carboxy-methyl (CM) dextran surface of CM5 sensorchips (Biacore); capture antibodies were coupled to a level of approximately 5000RU. For binding kinetic measurements the assay buffer was HBS-EP+ (Biacore): 10 mM Hepes, pH7.4, 150 mM NaCl, 3 mM EDTA, 0.05% polysorbate 20. During the assay, all measurements were referenced against the capture surface alone. Each assay cycle consisted of the following steps: 1) Capture of ligand to approximately 50RU; 2) Analyte injection over both reference and test surface, 240 μL at 80 μL/min, after which the dissociation was monitored for 900 seconds at 80 μL/min; 3) Regeneration of capture surface with low pH glycine. […] Data were processed and fit to a 1:1 binding model using Biacore T200 Evaluation Software to determine the binding kinetic rate constants, kₐ (on-rate) and kd (off-rate), and the equilibrium dissociation constant (affinity, KD).
The parental chAb18 from which the variants were derived was also tested as a comparator.

Binder | EC50 (Human full length B7-H3) [nM] | Kd [1] [nM]
chAb2 (antibody, IgG1, V domains shown, chimeric, huIgG1/k) VH: QVQLQQPGAELVKPGASVKLSCKASGYTFTSYWMHWVKQRPGQGLEWIGMIHPDSGTTNYNEKFRSKATLTVDKSSSTAYMQLSSLTSEDSAVYYCAVYYGSTYWYFDVWGTGTTVTVSS VL: DVVMTQTPLSLPVSLGDQAYISCRSSQSLVHINGNTYLHWYRQKPGQSPKLLIYKVSNRFSGVPDRFSGSGSGTDFTLKISRVEAEDLGVYFCSQSTHFPFTFGSGTKLEIK | 0.1 | 
chAb4 (antibody, IgG1, V domains shown, chimeric, huIgG1/k) VH: QVQLQQPGAELVKPGASVKLSCKASGYSFTSYWMHWVKQRPGQGLEWIGMIHPNSGSNNYNEKFKSKATLTVDKSSNTAYMQLSSLTSEDSAVYYCARRLGLHFDYWGQGTTLTVSS VL: DIVMTQSQKFMSTPVGDRVSITCKASQNVGTAVAWYQQKPGQSPKLLIYSASNRYTGVPDRFTGSGSGTDFTLTISNMQSEDLADYFCQQYSSYPYTFGGGTKLEIK | 0.56 | 
chAb18 (antibody, IgG1, V domains shown, chimeric, huIgG1/k) VH: QVQLQQSAAELARPGASVKMSCKASGYSFTSYTIHWVKQRPGQGLEWIGYINPNSRNTDYNQKFKDETTLTADRSSSTAYMQLISLTSEDSAVYYCARYSGSTPYWYFDVWGAGTTVTVSS VL: QIVLTQSPAILSASPGEKVTMTCRASSSVSYMNWYQQKPGSSPKPWIYATSNLASGVPARFSVSVSGTSHSLTISRVEAEDAATYYCQQWSSNPLTFGAGTKLELK | 1.14 | 0.17
chAb11 (antibody, IgG1, V domains shown, chimeric, huIgG1/k) VH: EVKLVESGGGLVQPGGSLRLSCATSGFTFTNYYMSWVRQPPGKALEWLGFIRNKANDYTTEYSASVKGRFTISRDNSQSILYLQMNTLRAEDSATYYCARESPGNPFAYWGQGTLVTVSA VL: DIVMTQSPSSLTVTAGEKVTMTCKSSQSLLNSGTQKNFLTWYQQKPGQPPKLLIYWASTRESGVPDRFTGSGSGTDFTLTISSVQAEDLAVYFCQNDYIYPLTFGAGTKLELK | 1.12 | 
chAb6 (antibody, IgG1, V domains shown, chimeric, huIgG1/k) VH: QVQLQQSGAELMKPGASVKISCKATGYTFSRYWIEWVKQRPGHGLEWIGEILPGSGSTNYNEKFKGKATFTADTSSNTAYMQVSSLTSEDSAVHYCARRGYGYVPYALDYWGQGTSVTVSS VL: EIQMTQTTSSLSASLGDRVTISCRASQDISNSLNWYQQKPDGTVNLLIYYTSRLYSGVPSRFSGSGSGTDYSLTISNLEQEDIATYFCQQGNTLPYTFGGGTKLEIK | 0.33 | 
chAb16 (antibody, IgG1, V domains shown, chimeric, huIgG1/k) VH: EVKLLESGGGLVQPGGSLKLSCAASGFDFSRYWMSWVRQAPGKGLEWIGEINPDSSTINYTPSLKDKFIISRDNAKNTLYLQMSKVRSEDTALYYCARPGFGNYIYAMDYWGQGTSVTVSS VL: DIQMTQTTSSLSASLGDRVTINCRASQDISNFLNWYQQKPDGTVKLLIYYTSRLYLGVPSRFSGSGSGTDYSLTISNLEQEDIATYFCQQGNTLPPTFGGGTKLEIK | 0.27 | 
chAb14 (antibody, IgG1, V domains shown, chimeric, huIgG1/k) VH: EVKLVESGGGLVKPGGSLKLSCAASGFTFSSYGMSWVRQTPEKRLEWVATISGGGTNTYYPDSVEGRFTISRDNAKNFLYLQMSSLRSEDTALYYCARHYGSQTMDYWGQGTSVTVSS VL: DIQMTQSPASLSASVGETVTITCRTSGNIHNYLTWYQQKQGKSPQLLVYNAKTLADGVPSRFSGSGSGTQFSLKINSLQPEDFGSYYCQHFWSIMWTFGGGTKLEIK | 0.81 | 
huAb18v9 (antibody, V domains shown, humanized IgG) VH: EVQLVQSGAEVKKPGSSVKVSCKASGYSFTSYTIHWVRQAPGQGLEWIGYINPNSRNTDYNQKFKDRTTLTADRSTSTAYMELSSLRSEDTAVYYCARYSGSTPYWYFDVWGQGTTVTVSS VL: EIVLTQSPDFQSVTPKEKVTITCRASSSVSYMNWYQQKPDQSPKPWIYATSNLASGVPSRFSVSVSGTDHTLTINSLEAEDAATYYCQQWSSNPLTFGQGTKLEIK |  | 0.38
